How the values were obtained:
[1] = target: T1, mTfR-1 A278T on Expi293 cells (mouse, UniProt Q62351 1-763); assay: FACS, transfected Expi293 cells; mutant poorly expressed
T1 construct: whole, on cells
Method: (§1) Transfected Expi293 cells were harvested and 2×10⁵ cells were transferred into V-bottom 96-well plate for staining. The cells were blocked in PBS containing 1% BSA (FACS buffer) for 10 min on ice, centrifuged to remove the buffer and 1 μl of 8D3-hFc formatted antibody, Clone C-hFc or Clone C variants 18 and 13 (Table 1), all at 1 mg/ml, was added to the wells. The cells were co-stained with mouse Tf-Alexa647 (Jackson ImmunoResearch). After 30 minutes on ice, the cells were washed and incubated with anti-hFc-PE (eBioscience) for 20 minutes on ice, washed again and resuspended in […] of FACS buffer containing 5 μl of propidium iodide (PI) to exclude dead cells from the analysis. The percentage of double-positive cells that stained with mTf and the tested antibody was determined on a CytoFlex cytometer (Beckman Coulter). The percentage of cells in the double positive quadrant (Q2) for WT mTfR-1 was used for normalization.

[2] = target: T2, mTfR-1 N381A on Expi293 cells (mouse, UniProt Q62351 1-763); assay: as above
T2 construct: whole, on cells
Method: as §1

[3] = target: T3, mTfR-1 I334A on Expi293 cells (mouse, UniProt Q62351 1-763); assay: as above
T3 construct: whole, on cells
Method: as §1

[4] = target: T4, mTfR-1 F224A on Expi293 cells (mouse, UniProt Q62351 1-763); assay: as above
T4 construct: whole, on cells
Method: as §1

[5] = target: T5, mTfR-1 L256A on Expi293 cells (mouse, UniProt Q62351 1-763); assay: as above
T5 construct: whole, on cells
Method: as §1

[6] = target: T6, mTfR-1 L331A on Expi293 cells (mouse, UniProt Q62351 1-763); assay: as above
T6 construct: whole, on cells
Method: as §1

[7] = target: T7, mTfR-1 N201A on Expi293 cells (mouse, UniProt Q62351 1-763); assay: as above
T7 construct: whole, on cells
Method: as §1

[8] = target: T8, mTfR-1 V379A on Expi293 cells (mouse, UniProt Q62351 1-763); assay: as above
T8 construct: whole, on cells
Method: as §1

[9] = target: T9, mTfR-1 I192A on Expi293 cells (mouse, UniProt Q62351 1-763); assay: as above
T9 construct: whole, on cells; also called 1192A
Method: as §1

[10] = target: T10, mTfR-1 V230A on Expi293 cells (mouse, UniProt Q62351 1-763); assay: FACS, transfected Expi293 cells
T10 construct: whole, on cells
Method: as §1

[11] = target: T11, mTfR-1 M202A on Expi293 cells (mouse, UniProt Q62351 1-763); assay: FACS, transfected Expi293 cells
T11 construct: whole, on cells
Method: as §1

[12] = target: T12, mTfR-1 T228A on Expi293 cells (mouse, UniProt Q62351 1-763); assay: FACS, transfected Expi293 cells
T12 construct: whole, on cells
Method: as §1

[13] = target: T13, mTfR-1 S225A on Expi293 cells (mouse, UniProt Q62351 1-763); assay: FACS, transfected Expi293 cells
T13 construct: whole, on cells
Method: as §1

[14] = target: T14, mTfR-1 S197A on Expi293 cells (mouse, UniProt Q62351 1-763); assay: FACS, transfected Expi293 cells
T14 construct: whole, on cells
Method: as §1

[15] = target: T15, mTfR-1 S326A on Expi293 cells (mouse, UniProt Q62351 1-763); assay: FACS, transfected Expi293 cells
T15 construct: whole, on cells
Method: as §1

[16] = target: T16, mTfR-1 P332A on Expi293 cells (mouse, UniProt Q62351 1-763); assay: FACS, transfected Expi293 cells
T16 construct: whole, on cells
Method: as §1

[17] = target: T17, mTfR-1 S328A on Expi293 cells (mouse, UniProt Q62351 1-763); assay: FACS, transfected Expi293 cells
T17 construct: whole, on cells
Method: as §1

[18] = target: T18, mTfR-1 I279A on Expi293 cells (mouse, UniProt Q62351 1-763); assay: FACS, transfected Expi293 cells
T18 construct: whole, on cells
Method: as §1

[19] = target: T19, mTfR-1 P324A on Expi293 cells (mouse, UniProt Q62351 1-763); assay: FACS, transfected Expi293 cells
T19 construct: whole, on cells
Method: as §1

[20] = target: T20, mTfR-1 I198A on Expi293 cells (mouse, UniProt Q62351 1-763); assay: FACS, transfected Expi293 cells
T20 construct: whole, on cells
Method: as §1

[21] = target: T21, recombinant mouse TfR-1, His-tagged (Sino Biological 50741-M07H) (mouse, UniProt Q62351 89-763); assay: SPR, His-captured TfR1
T21 construct: bought; His-tagged; also called mTfR1; mTfR-1
Method: (§2) Detailed binding kinetic analyses were performed to gain a better understanding of the relationship between affinity and brain penetration of the Clone C variants. Biacore surface plasmon resonance (SPR) analysis using immobilised mouse and human TfR-1 was performed for selected clones (Table 2).
(§3) Binding kinetics of VNAR-Fcs was determined by surface plasmon resonance (Biacore T200, GE Healthcare). CMS chips were coated with anti-His antibodies (His Capture Kit, GE Healthcare) as recommended by the manufacturer and human or mouse his-tagged TfR1 (SinoBiological) at 10 ug/mL in HBS-EP+ (GE Healthcare) was captured at flow rate 10 ul/min (contact time 120 s). […] A flow cell without TfR1 captured served as a reference. Sensorgrams were fitted and kinetic constants were determined using Biacore T200 Evaluation software. Chips were regenerated in 10 mM Glycine-HCl, pH 1.5 (contact time: 120 s at flow rate 30 ul/min).

[22] = target: T22, recombinant human TfR-1, His-tagged (Sino Biological 11020-H07H) (human, UniProt P02786 89-760); assay: SPR, His-captured TfR1
T22 construct: bought; His-tagged; also called hTfR1; hTfR-1
Method: as §2, §3

[23] = target: purified WT mTfR-1 (ELISA coat) (mouse, UniProt Q62351 89-763); assay: ELISA, coated purified mTfR-1
Sequence of purified WT mTfR-1 (ELISA coat) (Q62351 89-763): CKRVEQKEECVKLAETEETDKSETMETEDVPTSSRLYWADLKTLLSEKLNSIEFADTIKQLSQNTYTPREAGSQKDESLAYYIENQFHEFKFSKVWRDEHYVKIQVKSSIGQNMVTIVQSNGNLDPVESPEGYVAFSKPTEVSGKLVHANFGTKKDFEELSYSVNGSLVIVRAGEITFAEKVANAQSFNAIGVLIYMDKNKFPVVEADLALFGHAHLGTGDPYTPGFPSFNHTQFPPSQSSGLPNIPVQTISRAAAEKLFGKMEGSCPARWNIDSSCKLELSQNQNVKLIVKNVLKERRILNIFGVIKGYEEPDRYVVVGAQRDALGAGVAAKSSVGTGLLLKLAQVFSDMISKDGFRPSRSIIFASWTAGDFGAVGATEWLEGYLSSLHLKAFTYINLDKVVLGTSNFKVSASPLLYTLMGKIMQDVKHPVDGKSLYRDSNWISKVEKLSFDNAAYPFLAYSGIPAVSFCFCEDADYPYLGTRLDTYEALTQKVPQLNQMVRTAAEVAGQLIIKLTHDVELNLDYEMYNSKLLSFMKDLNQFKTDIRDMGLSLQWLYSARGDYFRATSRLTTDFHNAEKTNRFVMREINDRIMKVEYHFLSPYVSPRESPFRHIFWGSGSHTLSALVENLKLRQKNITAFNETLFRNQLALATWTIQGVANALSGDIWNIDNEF

T12 sequence (Q62351 whole entry T228A): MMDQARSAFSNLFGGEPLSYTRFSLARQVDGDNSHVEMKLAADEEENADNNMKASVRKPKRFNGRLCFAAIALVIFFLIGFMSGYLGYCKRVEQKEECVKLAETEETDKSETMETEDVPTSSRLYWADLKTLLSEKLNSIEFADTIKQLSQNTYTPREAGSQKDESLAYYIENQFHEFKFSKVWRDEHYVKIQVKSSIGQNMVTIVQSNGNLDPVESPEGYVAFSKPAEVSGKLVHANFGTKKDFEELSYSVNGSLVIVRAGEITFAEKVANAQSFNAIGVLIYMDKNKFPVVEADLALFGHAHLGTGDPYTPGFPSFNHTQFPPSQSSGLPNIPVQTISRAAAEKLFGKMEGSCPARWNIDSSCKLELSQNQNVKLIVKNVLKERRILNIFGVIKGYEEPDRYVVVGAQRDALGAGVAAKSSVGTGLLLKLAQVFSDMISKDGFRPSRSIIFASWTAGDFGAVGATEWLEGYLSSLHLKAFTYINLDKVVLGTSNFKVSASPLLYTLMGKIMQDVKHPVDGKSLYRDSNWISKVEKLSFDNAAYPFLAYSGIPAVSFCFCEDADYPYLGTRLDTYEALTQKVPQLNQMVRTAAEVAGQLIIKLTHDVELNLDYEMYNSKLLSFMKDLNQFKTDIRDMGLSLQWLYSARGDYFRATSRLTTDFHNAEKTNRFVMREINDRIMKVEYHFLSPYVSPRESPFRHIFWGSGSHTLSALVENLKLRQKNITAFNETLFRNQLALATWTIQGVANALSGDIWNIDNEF
T2 sequence (Q62351 whole entry N381A): as the sequence (Q62351 whole entry T228A) above, with A228T, N381A counted along it
T18 sequence (Q62351 whole entry I279A): as the sequence (Q62351 whole entry T228A) above, with A228T, I279A counted along it
T3 sequence (Q62351 whole entry I334A): as the sequence (Q62351 whole entry T228A) above, with A228T, I334A counted along it
T11 sequence (Q62351 whole entry M202A): as the sequence (Q62351 whole entry T228A) above, with M202A, A228T counted along it
T1 sequence (Q62351 whole entry A278T): as the sequence (Q62351 whole entry T228A) above, with A228T, A278T counted along it
T19 sequence (Q62351 whole entry P324A): as the sequence (Q62351 whole entry T228A) above, with A228T, P324A counted along it
T5 sequence (Q62351 whole entry L256A): as the sequence (Q62351 whole entry T228A) above, with A228T, L256A counted along it
T6 sequence (Q62351 whole entry L331A): as the sequence (Q62351 whole entry T228A) above, with A228T, L331A counted along it
T7 sequence (Q62351 whole entry N201A): as the sequence (Q62351 whole entry T228A) above, with N201A, A228T counted along it
T16 sequence (Q62351 whole entry P332A): as the sequence (Q62351 whole entry T228A) above, with A228T, P332A counted along it
T17 sequence (Q62351 whole entry S328A): as the sequence (Q62351 whole entry T228A) above, with A228T, S328A counted along it
T15 sequence (Q62351 whole entry S326A): as the sequence (Q62351 whole entry T228A) above, with A228T, S326A counted along it
T21 sequence (Q62351 89-763 limits assumed, stated change not applied): as the sequence (Q62351 89-763) above
T10 sequence (Q62351 whole entry V230A): as the sequence (Q62351 whole entry T228A) above, with A228T, V230A counted along it
T14 sequence (Q62351 whole entry S197A): as the sequence (Q62351 whole entry T228A) above, with S197A, A228T counted along it
T4 sequence (Q62351 whole entry F224A): as the sequence (Q62351 whole entry T228A) above, with F224A, A228T counted along it
T8 sequence (Q62351 whole entry V379A): as the sequence (Q62351 whole entry T228A) above, with A228T, V379A counted along it
T22 sequence (P02786 89-760 limits assumed): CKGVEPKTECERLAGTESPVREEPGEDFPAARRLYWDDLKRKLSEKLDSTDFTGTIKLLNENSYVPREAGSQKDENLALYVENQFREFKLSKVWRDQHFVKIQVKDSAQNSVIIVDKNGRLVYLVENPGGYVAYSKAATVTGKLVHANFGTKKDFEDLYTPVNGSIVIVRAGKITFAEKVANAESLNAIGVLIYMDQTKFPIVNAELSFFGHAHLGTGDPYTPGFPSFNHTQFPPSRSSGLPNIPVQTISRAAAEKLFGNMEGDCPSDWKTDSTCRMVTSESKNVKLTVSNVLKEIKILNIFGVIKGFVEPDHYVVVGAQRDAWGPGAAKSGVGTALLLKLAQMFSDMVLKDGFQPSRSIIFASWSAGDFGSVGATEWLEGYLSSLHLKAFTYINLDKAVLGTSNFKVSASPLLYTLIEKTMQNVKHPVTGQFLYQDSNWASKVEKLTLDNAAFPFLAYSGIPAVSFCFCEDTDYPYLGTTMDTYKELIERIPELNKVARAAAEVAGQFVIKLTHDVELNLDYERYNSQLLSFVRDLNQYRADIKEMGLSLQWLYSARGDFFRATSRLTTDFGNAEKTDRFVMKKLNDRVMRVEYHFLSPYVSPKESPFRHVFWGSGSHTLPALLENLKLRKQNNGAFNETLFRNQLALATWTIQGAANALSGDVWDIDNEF
T9 sequence (Q62351 whole entry I192A): as the sequence (Q62351 whole entry T228A) above, with I192A, A228T counted along it
T20 sequence (Q62351 whole entry I198A): as the sequence (Q62351 whole entry T228A) above, with I198A, A228T counted along it
T13 sequence (Q62351 whole entry S225A): as the sequence (Q62351 whole entry T228A) above, with S225A, A228T counted along it

Binder	% double-positive cells vs WT [1]	% double-positive cells vs WT [2]	% double-positive cells vs WT [3]	% double-positive cells vs WT [4]	% double-positive cells vs WT [5]	% double-positive cells vs WT [6]	% double-positive cells vs WT [7]	% double-positive cells vs WT [8]	% double-positive cells vs WT [9]	% double-positive cells vs WT [10]	% double-positive cells vs WT [11]	% double-positive cells vs WT [12]	% double-positive cells vs WT [13]	% double-positive cells vs WT [14]	% double-positive cells vs WT [15]	% double-positive cells vs WT [16]	% double-positive cells vs WT [17]	% double-positive cells vs WT [18]	% double-positive cells vs WT [19]	% double-positive cells vs WT [20]	other results
8D3 antibody (anti-mouse TfR-1 control; 8D3-hFc formatted antibody) (antibody, V domains shown) VH: EVQLVESGGGLVQPGNSLTLSCVASGFTFSNYGMHWIRQAPKKGLEWIAMIYYDSSKMNYADTVKGRFTISRDNSKNTLYLEMNSLRSEDTAMYYCAVPTSHYVVDVWGQGVSVTVSS VL: DIQMTQSPASLSASLEEIVTITCQASQDIGNWLAWYQQKPGKSPQLLIYGATSLADGVPSRFSGSRSGTQFSLKISRVQVEDIGIYYCLQAYNTPWTFGGGTKLELK	45%	26%	0%	0%	13%	0%	1%	0%	13%	81%	81%	89%	64%	100%	31%	57%	141%	74%	39%	94%	–
Clone C VNAR-hFc fusion (Fc fusion, not shown: a dimerising Fc or GST, bivalent VNAR-Fc; also called Clone C-hFc) ARVDQTPQTITKETGESLTINCVLRDSNCALSSTYWYRKKSGSTNEENISKGGRYVETVNSGSKSFSLRINDLTVEDSGTYRCNVVQYPSYNNYFWCDVYGDGTAVTVN	25%	32%	0%	0%	–	0%	0%	0%	61%	58%	166%	68%	180%	111%	136%	257%	50%	177%	27%	239%	Kd [21]: 0.892 nM; koff [21]: 0.000191 s⁻¹; kon [21]: 214000 M⁻¹ s⁻¹; Kd [22]: 0.604 nM; koff [22]: 0.000145 s⁻¹; kon [22]: 240000 M⁻¹ s⁻¹
Clone C variant 13 VNAR-hFc (Fc fusion, not shown: a dimerising Fc or GST, also called Clone C v13; Clone C var; 13) ARVDQTPQTITKETGESLTINCVLRDSNCALSSTYWYRKKSGSTNEENISKGGRYVETVNSGSKSFSLRINDLTVEDSGTYRCNVVQYPQQDNYFWCDVYGDGTAVTVN	12%	11%	0%	0%	0%	0%	0%	0%	–	47%	103%	65%	73%	56%	77%	79%	22%	85%	25%	73%	EC50 [23]: 0.8 nM; Kd [21]: 0.165 nM; koff [21]: 4.09e-05 s⁻¹; kon [21]: 248000 M⁻¹ s⁻¹; Kd [22]: 0.574 nM; koff [22]: 0.00017 s⁻¹; kon [22]: 297000 M⁻¹ s⁻¹
Clone C variant 18 VNAR-hFc (Fc fusion, not shown: a dimerising Fc or GST, also called Clone C v18; Clone C var; 18) ARVDQTPQTITKETGESLTINCVLRDSNCALSSTYWYRKKSGSTNEENISKGGRYVETVNSGSKSFSLRINDLTVEDSGTYRCNVVQYPQYPNYFWCDVYGDGTAVTVN	21%	0%	0%	0%	0%	0%	0%	0%	18%	59%	153%	45%	163%	66%	129%	218%	20%	206%	39%	79%	EC50 [23]: 0.69 nM; Kd [21]: 0.863 nM; koff [21]: 0.000269 s⁻¹; kon [21]: 312000 M⁻¹ s⁻¹; Kd [22]: 0.314 nM; koff [22]: 0.000113 s⁻¹; kon [22]: 360000 M⁻¹ s⁻¹

Source: patent publication US20210403591A1 (OSSIANIX, published 2021)
